Source: patent US20250043302A1, “MUTATED HYDROXYPHENYLPYRUVATE DIOXYGENASE POLYPEPTIDE, AND CODING GENE AND USE THEREOF” (BEIJING DABEINONG BIOTECHNOLOGY CO., LTD., priority 2021, published 2025)

What was measured:
Assay type in all cases: in vivo
[1] = tested on: Arabidopsis thaliana T1 plants; experiment: Isoxaflutole tolerance of transgenic Arabidopsis thaliana T1 plants (spray, bleached leaf area grade, damage score); conditions: Table 11; for Classification and statistics of the grade of pesticide damage Grade 0: number of plants at grade 0; for Classification and statistics of the grade of pesticide damage Grade 1: number of plants at grade 1; for Classification and statistics of the grade of pesticide damage Grade 2: number of plants at grade 2; for Classification and statistics of the grade of pesticide damage Grade 3: number of plants at grade 3; for Scores: pesticide damage score;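 for Scores: Weighted damage index from 0 to 100 where higher means more damage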
In short: (§1)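 Damage was assessed by bleaching grade (0 none; 1 <50%; 2 >50%; 3 100% of leaf area) one week after spraying. Sprays on 18-day-old T1 and wild-type plants used field-rate multiples: topramezone 25–200, isoxaflutole 35–280, mesotrione 52.5–420 g ai/ha.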

[2] = tested on: Arabidopsis thaliana T1 plants; experiment: Topramezone tolerance of transgenic Arabidopsis thaliana T1 plants (spray, bleached leaf area grade, damage score); conditions: Table 10; for Classification and statistics of the grade of pesticide damage Grade 0: number of plants at grade 0; for Classification and statistics of the grade of pesticide damage Grade 1: number of plants at grade 1; for Classification and statistics of the grade of pesticide damage Grade 2: number of plants at grade 2; for Classification and statistics of the grade of pesticide damage Grade 3: number of plants at grade 3; for Scores: pesticide damage score
In short: as §1

[3] = tested on: Arabidopsis thaliana T1 plants; experiment: Mesotrione tolerance of transgenic Arabidopsis thaliana T1 plants (spray, bleached leaf area grade, damage score); set-up: Scores: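 damage score 0-100 computed as Σ(N×S)/(T×M)×100 over grades 0-3 with higher meaning more damage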; conditions: Table 12; for Classification and statistics of the grade of pesticide damage Grade 0: number of plants at grade 0; for Classification and statistics of the grade of pesticide damage Grade 1: number of plants at grade 1; for Classification and statistics of the grade of pesticide damage Grade 2: number of plants at grade 2; for Classification and statistics of the grade of pesticide damage Grade 3: number of plants at grade 3; for Scores: pesticide damage score
In short: as §1

Molecule	Resistance evaluation ([1]; isoxaflutole 140 g ai/ha (2×))	Classification and statistics of the grade of pesticide damage Grade 0 ([1]; isoxaflutole 140 g ai/ha (2×))	Classification and statistics of the grade of pesticide damage Grade 1 ([1]; isoxaflutole 140 g ai/ha (2×))	Classification and statistics of the grade of pesticide damage Grade 2 ([1]; isoxaflutole 140 g ai/ha (2×))	Classification and statistics of the grade of pesticide damage Grade 3 ([1]; isoxaflutole 140 g ai/ha (2×))	Scores ([1]; isoxaflutole 140 g ai/ha (2×))	Resistance evaluation ([1]; isoxaflutole 280 g ai/ha (4×))	Classification and statistics of the grade of pesticide damage Grade 0 ([1]; isoxaflutole 280 g ai/ha (4×))	Classification and statistics of the grade of pesticide damage Grade 1 ([1]; isoxaflutole 280 g ai/ha (4×))	Classification and statistics of the grade of pesticide damage Grade 2 ([1]; isoxaflutole 280 g ai/ha (4×))	Classification and statistics of the grade of pesticide damage Grade 3 ([1]; isoxaflutole 280 g ai/ha (4×))	Scores ([1]; isoxaflutole 280 g ai/ha (4×))	Resistance evaluation ([2]; topramezone 100 g ai/ha (4×))	Classification and statistics of the grade of pesticide damage Grade 0 ([2]; topramezone 100 g ai/ha (4×))	Classification and statistics of the grade of pesticide damage Grade 1 ([2]; topramezone 100 g ai/ha (4×))	Classification and statistics of the grade of pesticide damage Grade 2 ([2]; topramezone 100 g ai/ha (4×))	Classification and statistics of the grade of pesticide damage Grade 3 ([2]; topramezone 100 g ai/ha (4×))	Scores ([2]; topramezone 100 g ai/ha (4×))	Resistance evaluation ([2]; topramezone 200 g ai/ha (8×))	Classification and statistics of the grade of pesticide damage Grade 0 ([2]; topramezone 200 g ai/ha (8×))	further results
HPPDm-4-02: nucleotide sequence encoding Avena sativa HPPD with A107 deletion+K351N+F372A+F383W; vector DBN11785 (nucleic acid, HPPDm-4-02 Nucleotide Sequence, vector DBN11785) DNA: ATGCCACCTACTCCAGCTACAGCTACTGGTGCTGCTGCTGCTGCCGTTACTCCTGAGCACGCTGCCAGGTCATTCCCCAGGGTGGTTCGCGTGAACCCCAGATCTGATAGGTTCCCAGTTCTGAGCTTCCACCATGTTGAGCTGTGGTGCGCTGATGCTGCTTCTGCTGCTGGCAGGTTCTCTTTCGCTCTTGGTGCTCCACTCGCTGCTAGATCTGATCTGTCTACAGGAAATAGCGCTCATGCCTCACTCCTGCTTCGCTCAGGTGCTTTGGCCTTCCTCTTCACCGCTCCATATGCTCCCCCACCTCAGGAGGCTACTGCTGCTGCTACAGCCTCCATTCCAAGCTTCTCAGCTGATGCCGCTAGAACCTTCGCTGCTGCTCATGGACTTGCCGTGAGGTCTGTTGGTGTTCGCGTGGCTGATGCTGCTGAGGCTTTCAGAGTTTCCGTTGCCGGCGGAGCTAGGCCAGCTTTCGCTCCTGCTGATTTGGGACATGGTTTCGGCCTGGCTGAGGTTGAGCTTTACGGTGACGTGGTTCTCCGCTTCGTGTCTTACCCAGATGAGACTGACCTGCCTTTCCTTCCCGGCTTCGAGAGAGTTTCCTCTCCTGGTGCCGTGGATTACGGCCTGACAAGGTTCGACCACGTGGTTGGAAACGTTCCCGAGATGGCTCCAGTGATCGATTACATGAAGGGCTTCCTTGGATTCCATGAGTTCGCCGAGTTCACTGCTGAGGACGTGGGAACCACTGAGTCCGGTTTGAACTCTGTGGTTCTCGCCAACAATTCTGAGGCTGTTTTGCTCCCTCTGAATGAGCCTGTGCATGGAACCAAGAGGAGAAGCCAGATTCAAACTTACCTGGAGTACCACGGTGGCCCTGGAGTTCAGCATATCGCCCTTGCTTCTAATGATGTGTTGCGCACACTCAGAGAGATGCGCGCCAGAACCCCCATGGGAGGTTTCGAGTTCATGGCCCCACCACAGGCTAAGTACTACGAGGGCGTTAGAAGGATTGCTGGAGACGTGTTGAGCGAGGAGCAGATCAATGAGTGCCAAGAGCTGGGTGTTCTTGTGGATAGGGATGACCAGGGCGTTCTGCTTCAAATTGCCACTAAGCCAGTGGGCGACCGCCCTACATTCTGGCTTGAGATGATTCAAAGAATCGGCTGCATGGAGAAGGATGAGGTTGGACAGGAGTACCAAAAGGGCGGATGCGGTGGCTTCGGAAAGGGTAACTTCAGCGAGTTGTTCAAGTCAATCGAGGACTACGAGAAGAGCCTCGAGGTGAAGCAGTCAGTGGTTGCCCAAAAGTCCTGA	Highly resistant	16	0	0	0	0	Highly resistant	13	3	0	0	6	Highly resistant	16	0	0	0	0	Highly resistant	16	Classification and statistics of the grade of pesticide damage Grade 1 ([2]; topramezone 200 g ai/ha (8×)): 0; Classification and statistics of the grade of pesticide damage Grade 2 ([2]; topramezone 200 g ai/ha (8×)): 0; Classification and statistics of the grade of pesticide damage Grade 3 ([2]; topramezone 200 g ai/ha (8×)): 0; Scores ([2]; topramezone 200 g ai/ha (8×)): 0; Resistance evaluation ([3]; mesotrione 210 g ai/ha (2×)): Highly resistant; Classification and statistics of the grade of pesticide damage Grade 0 ([3]; mesotrione 210 g ai/ha (2×)): 16; Classification and statistics of the grade of pesticide damage Grade 1 ([3]; mesotrione 210 g ai/ha (2×)): 0; Classification and statistics of the grade of pesticide damage Grade 2 ([3]; mesotrione 210 g ai/ha (2×)): 0; Classification and statistics of the grade of pesticide damage Grade 3 ([3]; mesotrione 210 g ai/ha (2×)): 0; Scores ([3]; mesotrione 210 g ai/ha (2×)): 0; Resistance evaluation ([3]; mesotrione 420 g ai/ha (4×)): Highly resistant; Classification and statistics of the grade of pesticide damage Grade 0 ([3]; mesotrione 420 g ai/ha (4×)): 15; Classification and statistics of the grade of pesticide damage Grade 1 ([3]; mesotrione 420 g ai/ha (4×)): 1; Classification and statistics of the grade of pesticide damage Grade 2 ([3]; mesotrione 420 g ai/ha (4×)): 0; Classification and statistics of the grade of pesticide damage Grade 3 ([3]; mesotrione 420 g ai/ha (4×)): 0; Scores ([3]; mesotrione 420 g ai/ha (4×)): 2
HPPDm-5-02: nucleotide sequence encoding Avena sativa HPPD with A111T+K351N+F372A+F383W; vector DBN11786 (nucleic acid, HPPDm-5-02 Nucleotide Sequence, vector DBN11786) DNA: ATGCCACCTACTCCAGCTACAGCTACTGGTGCTGCTGCTGCTGCCGTTACTCCTGAGCACGCTGCCAGGTCATTCCCCAGGGTGGTTCGCGTGAACCCCAGATCTGATAGGTTCCCAGTTCTGAGCTTCCACCATGTTGAGCTGTGGTGCGCTGATGCTGCTTCTGCTGCTGGCAGGTTCTCTTTCGCTCTTGGTGCTCCACTCGCTGCTAGATCTGATCTGTCTACAGGAAATAGCGCTCATGCCTCACTCCTGCTTCGCTCAGGTGCTTTGGCCTTCCTCTTCACCGCTCCATATGCTCCCCCACCTCAGGAGGCTGCTACTGCTGCTACTACAGCCTCCATTCCAAGCTTCTCAGCTGATGCCGCTAGAACCTTCGCTGCTGCTCATGGACTTGCCGTGAGGTCTGTTGGTGTTCGCGTGGCTGATGCTGCTGAGGCTTTCAGAGTTTCCGTTGCCGGCGGAGCTAGGCCAGCTTTCGCTCCTGCTGATTTGGGACATGGTTTCGGCCTGGCTGAGGTTGAGCTTTACGGTGACGTGGTTCTCCGCTTCGTGTCTTACCCAGATGAGACTGACCTGCCTTTCCTTCCCGGCTTCGAGAGAGTTTCCTCTCCTGGTGCCGTGGATTACGGCCTGACAAGGTTCGACCACGTGGTTGGAAACGTTCCCGAGATGGCTCCAGTGATCGATTACATGAAGGGCTTCCTTGGATTCCATGAGTTCGCCGAGTTCACTGCTGAGGACGTGGGAACCACTGAGTCCGGTTTGAACTCTGTGGTTCTCGCCAACAATTCTGAGGCTGTTTTGCTCCCTCTGAATGAGCCTGTGCATGGAACCAAGAGGAGAAGCCAGATTCAAACTTACCTGGAGTACCACGGTGGCCCTGGAGTTCAGCATATCGCCCTTGCTTCTAATGATGTGTTGCGCACACTCAGAGAGATGCGCGCCAGAACCCCCATGGGAGGTTTCGAGTTCATGGCCCCACCACAGGCTAAGTACTACGAGGGCGTTAGAAGGATTGCTGGAGACGTGTTGAGCGAGGAGCAGATCAATGAGTGCCAAGAGCTGGGTGTTCTTGTGGATAGGGATGACCAGGGCGTTCTGCTTCAAATTGCCACTAAGCCAGTGGGCGACCGCCCTACATTCTGGCTTGAGATGATTCAAAGAATCGGCTGCATGGAGAAGGATGAGGTTGGACAGGAGTACCAAAAGGGCGGATGCGGTGGCTTCGGAAAGGGTAACTTCAGCGAGTTGTTCAAGTCAATCGAGGACTACGAGAAGAGCCTCGAGGTGAAGCAGTCAGTGGTTGCCCAAAAGTCCTGA	Highly resistant	16	0	0	0	0	Highly resistant	14	1	1	0	6	Highly resistant	16	0	0	0	0	Highly resistant	16	Classification and statistics of the grade of pesticide damage Grade 1 ([2]; topramezone 200 g ai/ha (8×)): 0; Classification and statistics of the grade of pesticide damage Grade 2 ([2]; topramezone 200 g ai/ha (8×)): 0; Classification and statistics of the grade of pesticide damage Grade 3 ([2]; topramezone 200 g ai/ha (8×)): 0; Scores ([2]; topramezone 200 g ai/ha (8×)): 0; Resistance evaluation ([3]; mesotrione 210 g ai/ha (2×)): Highly resistant; Classification and statistics of the grade of pesticide damage Grade 0 ([3]; mesotrione 210 g ai/ha (2×)): 16; Classification and statistics of the grade of pesticide damage Grade 1 ([3]; mesotrione 210 g ai/ha (2×)): 0; Classification and statistics of the grade of pesticide damage Grade 2 ([3]; mesotrione 210 g ai/ha (2×)): 0; Classification and statistics of the grade of pesticide damage Grade 3 ([3]; mesotrione 210 g ai/ha (2×)): 0; Scores ([3]; mesotrione 210 g ai/ha (2×)): 0; Resistance evaluation ([3]; mesotrione 420 g ai/ha (4×)): Highly resistant; Classification and statistics of the grade of pesticide damage Grade 0 ([3]; mesotrione 420 g ai/ha (4×)): 16; Classification and statistics of the grade of pesticide damage Grade 1 ([3]; mesotrione 420 g ai/ha (4×)): 0; Classification and statistics of the grade of pesticide damage Grade 2 ([3]; mesotrione 420 g ai/ha (4×)): 0; Classification and statistics of the grade of pesticide damage Grade 3 ([3]; mesotrione 420 g ai/ha (4×)): 0; Scores ([3]; mesotrione 420 g ai/ha (4×)): 0
